# Measurements taken from patent US20100021987.
# B1: human SENP6 (hSENP6) SUMO protease catalytic domain (protein)
# chain: MGENHTIFIGPVEKLIVYPPPPAKGGISVTNEDLHCLNEGEFLNDVIIDFYLKYLVLEKLKKEDADRIHIFSSFFYKRLNQRERRNHETTNLSIQQKRHGRVKTWTRHVDIFEKDFIFVPLNEAAHWFLAVVCFPGLEKPKYEPNPHYHENAVIQKCSTVEDSCISSSASEMESCSQNSSAKPVIKKMLNKKHCIAVIDSNPGQEESDPRYKRNICSVKYSVKKINHTASENEEFNKGESTSQKVADRTKSENGLQNESLSSTHHTDGLSKIRLNYSDESPEAGKMLEDELVDFSEDQDNQDDSSDDGFLADDNCSSEIGQWHLKPTICKQPCILLMDSLRGPSRSNVVKILREYLEVEWEVKKGSKRSFSKDVMKGSNPKVPQQNNFSDCGVYVLQYVESFFENPILSFELPMNLANWFPPPRMRTKREEIRNIILKLQEDQSKEKRKHKDTYSTEAPLGEGTEQYVNSISDLEHHHHHH
# B2: human SENP1 (hSENP1) SUMO protease catalytic domain (protein)
# chain: MASFPEITEEMEKEIKNVFRNGNQDEVLSEAFRLTITRKDIQTLNHLNWLNDEIINFYMNMLMERSKEKGLPSVHAFNTFFFTKLKTAGYQAVKRWTKKVDVFSVDILLVPIHLGVHWCLAVVDFRKKNITYYDSMGGINNEACRILLQYLKQESIDKKRKEFDTNGWQLFSKKSQIPQQMNGSDCGMFACKYADCITKDRPINFTQQHMPYFRKRMVWEILHRKLLEHHHHHH
# B3: Saccharomyces cerevisiae Ulp1 SUMO protease catalytic domain (protein)
# chain: MGLVPELNEKDDDQVQKALASRENTQLMNRDNIEITVRDFKTLAPRRWLNDTIIEFFMKYIEKSTPNTVAFNSFFYTNLSERGYQGVRRWMKRKKTQIDKLDKIFTPINLNQSHWALGIIDLKKKTIGYVDSLSNGPNAMSFAILTDLQKYVMEESKHTIGEDFDLIHLDCPQQPNGYDCGIYVCMNTLYGSADAPLDFDYKDAIRMRRFIAHLILTDALKLEHHHHHH
# B4: Arabidopsis thalania ULP1c (AtULP1c) SUMO protease catalytic domain (protein)
# chain: MVVEEACELPEGLPEDIYYPSSDQSDGRDLVQVSLKDLKCLSPGEYLTSPVINFYIRYVQHHVFSADKTAANCHFFNTFFYKKLTEAVSYKGNDRDAYFVKFRRWWKGFDLFCKSYIFIPIHEDLHWSLVIICIPDKEDESGLTIIHLDSLGLHPRNLIFNNVKRFLREEWNYLNQDAPLDLPISAKVWRDLPNMINEAEVQVPQQKNDFDCGLFLLFFIRRFIEEAPQRLTLQDLKMIHKKWFKPEEASALRIKIWNILVDLFRKGNQTDLEHHHHHH
# Tests used:
# [1] = target: 6xHis-hSUMO-3-X-eGFP, X = A
# [2] = target: 6xHis-hSUMO-3-X-eGFP, X = C
# [3] = target: 6xHis-hSUMO-3-X-eGFP, X = D
# [4] = target: 6xHis-hSUMO-3-X-eGFP, X = E
# [5] = target: 6xHis-hSUMO-3-X-eGFP, X = F
# [6] = target: 6xHis-hSUMO-3-X-eGFP, X = G
# [7] = target: 6xHis-hSUMO-3-X-eGFP, X = H
# [8] = target: 6xHis-hSUMO-3-X-eGFP, X = I
# [9] = target: 6xHis-hSUMO-3-X-eGFP, X = K
# [10] = target: 6xHis-hSUMO-3-X-eGFP, X = L
# [11] = target: 6xHis-hSUMO-3-X-eGFP, X = N
# [12] = target: 6xHis-hSUMO-3-X-eGFP, X = P
# [13] = target: 6xHis-hSUMO-3-X-eGFP, X = Q
# [14] = target: 6xHis-hSUMO-3-X-eGFP, X = R
# [15] = target: 6xHis-hSUMO-3-X-eGFP, X = S
# [16] = target: 6xHis-hSUMO-3-X-eGFP, X = T
# [17] = target: 6xHis-hSUMO-3-X-eGFP, X = V
# [18] = target: 6xHis-hSUMO-3-X-eGFP, X = W
# [19] = target: 6xHis-hSUMO-3-X-eGFP, X = Y
protein,measurement,setting,value
B1,activity level (grade),6xHis-AtSUMO1-eGFP,-
same,"cleavage, single enzyme concentration, SDS-PAGE",6xHis-AtSUMO1-eGFP,did not digest the others at the incubation time and enzyme concentration used
same,activity level (grade),6xHis-AtSUMO2-eGFP,-
same,"cleavage, single enzyme concentration, SDS-PAGE",6xHis-AtSUMO2-eGFP,did not digest the others at the incubation time and enzyme concentration used
same,activity level (grade),6xHis-T-SUMO-eGFP,-
same,"cleavage, single enzyme concentration, SDS-PAGE",6xHis-T-SUMO-eGFP,did not digest the others at the incubation time and enzyme concentration used
same,activity level (grade),6xHis-hSUMO-1-eGFP,-
same,"cleavage, single enzyme concentration, SDS-PAGE",6xHis-hSUMO-1-eGFP,did not digest the others at the incubation time and enzyme concentration used
same,activity level (grade),6xHis-hSUMO-3-eGFP,+/-
same,"cleavage, single enzyme concentration, SDS-PAGE",6xHis-hSUMO-3-eGFP,demonstrated partial cleavage of hSUMO-3-eGFP
same,activity level (grade),6xHis-ySmt3-eGFP,-
same,"cleavage, single enzyme concentration, SDS-PAGE",6xHis-ySmt3-eGFP,did not digest the others at the incubation time and enzyme concentration used
B2,activity level (grade),6xHis-AtSUMO1-eGFP,+/-
same,"cleavage, single enzyme concentration, SDS-PAGE",6xHis-AtSUMO1-eGFP,"It also cleaved the other 4 fusions, but to a much lesser extent"
same,activity level (grade),6xHis-AtSUMO2-eGFP,+/-
same,"cleavage, single enzyme concentration, SDS-PAGE",6xHis-AtSUMO2-eGFP,"It also cleaved the other 4 fusions, but to a much lesser extent"
same,activity level (grade),6xHis-T-SUMO-eGFP,+/-
same,"cleavage, single enzyme concentration, SDS-PAGE",6xHis-T-SUMO-eGFP,"It also cleaved the other 4 fusions, but to a much lesser extent"
same,activity level (grade),6xHis-hSUMO-1-eGFP,+/-
same,"cleavage, single enzyme concentration, SDS-PAGE",6xHis-hSUMO-1-eGFP,"It also cleaved the other 4 fusions, but to a much lesser extent"
same,activity level (grade),6xHis-hSUMO-3-eGFP,+
same,"cleavage, single enzyme concentration, SDS-PAGE",6xHis-hSUMO-3-eGFP,"cleaved ySmt3 the best, followed by hSUMO-3"
same,activity level (grade),6xHis-ySmt3-eGFP,++
same,"cleavage, single enzyme concentration, SDS-PAGE",6xHis-ySmt3-eGFP,"hSENP1, which cleaved ySmt3 the best"
B3,activity level (grade),6xHis-AtSUMO1-eGFP,++
same,"cleavage, 2-fold enzyme dilution series, SDS-PAGE",6xHis-AtSUMO1-eGFP,Both hSENP2 and yUlp1 cleaved the AtSUMO1 fusion similarly
same,"cleavage, time course, SDS-PAGE",6xHis-AtSUMO1-eGFP,cleaving not only T-SUMO but also AtSUMO1 and AtSUMO2 significantly better than did hSENP2
same,activity level (grade),6xHis-AtSUMO2-eGFP,++
same,"cleavage, 2-fold enzyme dilution series, SDS-PAGE",6xHis-AtSUMO2-eGFP,a slight advantage in the cleavage of AtSUMO2-eGFP
same,"cleavage, time course, SDS-PAGE",6xHis-AtSUMO2-eGFP,cleaving not only T-SUMO but also AtSUMO1 and AtSUMO2 significantly better than did hSENP2
same,activity level (grade),6xHis-T-SUMO-eGFP,++
same,"cleavage, 2-fold enzyme dilution series, SDS-PAGE",6xHis-T-SUMO-eGFP,yUlp1 had a distinct advantage in the cleavage of T-SUMO-eGFP
same,"cleavage, time course, SDS-PAGE",6xHis-T-SUMO-eGFP,cleaving not only T-SUMO but also AtSUMO1 and AtSUMO2 significantly better than did hSENP2
same,activity level (grade),6xHis-hSUMO-1-eGFP,+
same,"cleavage, time course, SDS-PAGE",6xHis-hSUMO-1-eGFP,both enzymes cleaving hSUMO-1-eGFP poorly
same,"Percent cleavage, enzyme:substrate 1:100",[1],96.3%
same,"Percent cleavage, enzyme:substrate 1:1000",[1],27.1%
same,"Percent cleavage, enzyme:substrate 1:100",[2],98.4%
same,"Percent cleavage, enzyme:substrate 1:1000",[2],25.3%
same,"Percent cleavage, enzyme:substrate 1:100",[3],92.3%
same,"Percent cleavage, enzyme:substrate 1:1000",[3],3.3%
same,"Percent cleavage, enzyme:substrate 1:100",[4],80.1%
same,"Percent cleavage, enzyme:substrate 1:1000",[4],11.3%
same,"Percent cleavage, enzyme:substrate 1:100",[5],95.4%
same,"Percent cleavage, enzyme:substrate 1:1000",[5],27%
same,"Percent cleavage, enzyme:substrate 1:100",[6],96.5%
same,"Percent cleavage, enzyme:substrate 1:1000",[6],27%
same,"Percent cleavage, enzyme:substrate 1:100",[7],90.8%
same,"Percent cleavage, enzyme:substrate 1:1000",[7],25.5%
same,"Percent cleavage, enzyme:substrate 1:100",[8],1.9%
same,"Percent cleavage, enzyme:substrate 1:1000",[8],0%
same,"Percent cleavage, enzyme:substrate 1:100",[9],22.4%
same,"Percent cleavage, enzyme:substrate 1:1000",[9],0%
same,"Percent cleavage, enzyme:substrate 1:100",[10],4.4%
same,"Percent cleavage, enzyme:substrate 1:1000",[10],0%
same,"Percent cleavage, enzyme:substrate 1:100",[11],97.9%
same,"Percent cleavage, enzyme:substrate 1:1000",[11],16.9%
same,"Percent cleavage, enzyme:substrate 1:100",[12],0%
same,"Percent cleavage, enzyme:substrate 1:1000",[12],0%
same,"Percent cleavage, enzyme:substrate 1:100",[13],65.5%
same,"Percent cleavage, enzyme:substrate 1:1000",[13],3.7%
same,"Percent cleavage, enzyme:substrate 1:100",[14],96.6%
same,"Percent cleavage, enzyme:substrate 1:1000",[14],17.2%
same,"Percent cleavage, enzyme:substrate 1:100",[15],98.2%
same,"Percent cleavage, enzyme:substrate 1:1000",[15],16.7%
same,"Percent cleavage, enzyme:substrate 1:100",[16],95.8%
same,"Percent cleavage, enzyme:substrate 1:1000",[16],14.3%
same,"Percent cleavage, enzyme:substrate 1:100",[17],20.2%
same,"Percent cleavage, enzyme:substrate 1:1000",[17],4%
same,"Percent cleavage, enzyme:substrate 1:100",[18],89.7%
same,"Percent cleavage, enzyme:substrate 1:1000",[18],16.8%
same,"Percent cleavage, enzyme:substrate 1:100",[19],96.9%
same,"Percent cleavage, enzyme:substrate 1:1000",[19],16.9%
same,Kcat,6xHis-hSUMO-3-eGFP,Kcat = 0.027
same,Km,6xHis-hSUMO-3-eGFP,Km = 15.8 mM
same,"Percent cleavage, enzyme:substrate 1:100",6xHis-hSUMO-3-eGFP,98.3%
same,"Percent cleavage, enzyme:substrate 1:1000",6xHis-hSUMO-3-eGFP,18.4%
same,activity level (grade),6xHis-hSUMO-3-eGFP,+
same,"cleavage, time course, SDS-PAGE",6xHis-hSUMO-3-eGFP,yUlp1 was able to cleave apparently less than half of the substrate in 4 hrs.
same,Kcat,6xHis-ySmt3-eGFP,Kcat = 0.40
same,Km,6xHis-ySmt3-eGFP,Km = 4.5 mM
same,activity level (grade),6xHis-ySmt3-eGFP,++++
same,"cleavage, time course, SDS-PAGE",6xHis-ySmt3-eGFP,both enzymes cleaving hSUMO-1-eGFP poorly and ySmt3-eGFP well
B4,activity level (grade),6xHis-AtSUMO1-eGFP,-
same,"cleavage, single enzyme concentration, SDS-PAGE",6xHis-AtSUMO1-eGFP,AtULP1c did not show activity against any of the SUMO fusions
same,activity level (grade),6xHis-AtSUMO2-eGFP,-
same,"cleavage, single enzyme concentration, SDS-PAGE",6xHis-AtSUMO2-eGFP,AtULP1c did not show activity against any of the SUMO fusions
same,activity level (grade),6xHis-T-SUMO-eGFP,-
same,"cleavage, single enzyme concentration, SDS-PAGE",6xHis-T-SUMO-eGFP,AtULP1c did not show activity against any of the SUMO fusions
same,activity level (grade),6xHis-hSUMO-1-eGFP,-
same,"cleavage, single enzyme concentration, SDS-PAGE",6xHis-hSUMO-1-eGFP,AtULP1c did not show activity against any of the SUMO fusions
same,activity level (grade),6xHis-hSUMO-3-eGFP,-
same,"cleavage, single enzyme concentration, SDS-PAGE",6xHis-hSUMO-3-eGFP,AtULP1c did not show activity against any of the SUMO fusions
same,activity level (grade),6xHis-ySmt3-eGFP,-
same,"cleavage, single enzyme concentration, SDS-PAGE",6xHis-ySmt3-eGFP,AtULP1c did not show activity against any of the SUMO fusions
